Measurements reported in US20060257407A1 (Janssen / Centocor, published 2006).
Where two headings read alike, the source gives them in different places.

Legend:
recombinant human IL-6 [1] = molecular target: T1, recombinant human IL-6 (human, UniProt P05231 30-212); test: cell-based or functional assay
recombinant human IL-6 [2] = molecular target: T1, recombinant human IL-6; test: KinExA 3000, equilibrium in solution, IgG at 0.5 pM with serially diluted human IL-6, 20 C
Protocol: (§1) The KinExA 3000 instrument, manufactured by Sapidyne, was used to measure binding kinetics. Briefly, human IL-6 was covalently coupled to alzactone beads and the binding of free IgG to the beads was detected on the instrument. […] For example, the chimeric anti-IL-6 antibody was used at a constant concentration of 5 pM and individual tubes were incubated with 0-200 pM of IL-6. Incubations for the other IgGs were set in a similar manner. After the incubation, free IgG in each equilibrated sample was determined on the KinExA 3000 instrument according to the manufacturer's instructions. KD values were determined by the KinExA 3000 software using the KinExA 3000 instrument, as described in more detail below.

recombinant human IL-6 [3] = molecular target: T1, recombinant human IL-6; test: cell-based or functional assay; remark: listed apart in the source
recombinant human IL-6 [4] = molecular target: T1, recombinant human IL-6; test: calculated, KinExA 3000
Protocol: as §1
(§2) To measure kₒₙ, individual IgGs at 200 pM were mixed with 100-200 pM of human IL-6 and the unbound IgG was detected by binding to human IL-6 covalently coupled to alzactone beads on the KinExA 3000 instrument. A series of measurements were taken over time. The resulting data was used to calculate the kₒₙ with the KinExA 3000 software. koff was calculated by using the formula KD=koff/kₒₙ.

recombinant human IL-6 [5] = molecular target: T1, recombinant human IL-6; test: KinExA 3000
Protocol: as §1, §2

recombinant human IL-6 [6] = molecular target: T1, recombinant human IL-6; test: calculated from KD = koff/kon, KinExA 3000
Protocol: as §1, §2

recombinant human IL-6 [7] = molecular target: T1, recombinant human IL-6; test: KinExA 3000, IgG at 200 pM mixed with 100-200 pM human IL-6, free IgG over time
Protocol: as §2

T1 sequence (P05231 30-212 limits assumed): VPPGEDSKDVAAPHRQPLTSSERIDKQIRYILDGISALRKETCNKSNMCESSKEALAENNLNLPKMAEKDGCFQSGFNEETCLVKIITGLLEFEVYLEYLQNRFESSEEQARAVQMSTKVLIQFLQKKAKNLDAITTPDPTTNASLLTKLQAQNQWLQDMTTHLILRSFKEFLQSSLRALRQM

B1: AME-19a (antibody, V domains shown)
VH: EVQLVESGGGLVQPGGSLRLSCAASGFTFSPFAMSWVRQAPGKGLEWVAKISPGGSWTYYSDTVTGRFTISRDNAKNSLYLQMNSLRAEDTAVYYCARQLWGYYALDIWGQGTTVTVSS
VL: EIVLTQSPATLSLSPGERATLSCSASISVSYMYWYQQKPGQAPRLLIYDMSNLASGIPARFSGSGSGTDFTLTISSLEPEDFAVYYCMQWSGYPYTFGGGTKVEIK
notes: Tested as IgG; also called 136; human engineered anti-IL-6 (clone AME-19a) antibody
- EC50, growth of IL-6 dependent 7TD1 cells with 500 pg/ml human IL-6 (ATPlite) (recombinant human IL-6 [1]): 2.7 pM
- improvement of EC50 against CNTO328, 7TD1 cell assay (recombinant human IL-6 [1]): 10 fold
- Kd (recombinant human IL-6 [2]): 0.037 pM
- EC50, growth of IL-6 dependent 7TD1 cells with 500 pg/ml human IL-6 (ATPlite) (recombinant human IL-6 [3]): 0.41 ng/mL
- Improvement Ratio of koff (against chimeric antibody) (recombinant human IL-6 [4]): 65 fold
- Improvement Ratio of KD (as compared to chimeric ab) (recombinant human IL-6 [5]): 81.1 fold
- Improvement Ratio of kon (against chimeric antibody) (recombinant human IL-6 [5]): 1.2 fold
- koff (recombinant human IL-6 [6]): 2e-07 s⁻¹
- kon (recombinant human IL-6 [7]): 5.5e+06 M⁻¹ s⁻¹
